From IntAct's records for PubMed 25910212 come the findings set out here.

To fix the notation:
B1: Tyrosine aminotransferase (Homo sapiens), P17735 (parent)
chain: MDPYMIQMSSKGNLPSILDVHVNVGGRSSVPGKMKGRKARWSVRPSDMAKKTFNPIRAIVDNMKVKPNPNKTMISLSIGDPTVFGNLPTDPEVTQAMKDALDSGKYNGYAPSIGFLSSREEIASYYHCPEAPLEAKDVILTSGCSQAIDLCLAVLANPGQNILVPRPGFSLYKTLAESMGIEVKLYNLLPEKSWEIDLKQLEYLIDEKTACLIVNNPSNPCGSVFSKRHLQKILAVAARQCVPILADEIYGDMVFSDCKYEPLATLSTDVPILSCGGLAKRWLVPGWRLGWILIHDRRDIFGNEIRDGLVKLSQRILGPCTIVQGALKSILCRTPGEFYHNTLSFLKSNADLCYGALAAIPGLRPVRPSGAMYLMVGIEMEHFPEFENDVEFTERLVAEQSVHCLPATCFEYPNFIRVVITVPEVMMLEACSRIQEFCEQHYHCAEGSQEECDK
B2: U4/U6 small nuclear ribonucleoprotein Prp31 (Homo sapiens), Q8WWY3 (parent)
chain: MSLADELLADLEEAAEEEEGGSYGEEEEEPAIEDVQEETQLDLSGDSVKTIAKLWDSKMFAEIMMKIEEYISKQAKASEVMGPVEAAPEYRVIVDANNLTVEIENELNIIHKFIRDKYSKRFPELESLVPNALDYIRTVKELGNSLDKCKNNENLQQILTNATIMVVSVTASTTQGQQLSEEELERLEEACDMALELNASKHRIYEYVESRMSFIAPNLSIIIGASTAAKIMGVAGGLTNLSKMPACNIMLLGAQRKTLSGFSSTSVLPHTGYIYHSDIVQSLPPDLRRKAARLVAAKCTLAARVDSFHESTEGKVGYELKDEIERKFDKWQEPPPVKQVKPLPAPLDGQRKKRGGRRYRKMKERLGLTEIRKQANRMSFGEIEEDAYQEDLGFSLGHLGKSGSGRVRQTQVNEATKARISKTLQRTLQKQSVVYGGKSTIRDRSSGTASSVAFTPLQGLEIVNPQAAEKKVAEANQKYFSSMAEFLKVKGEKSGLMST
partner: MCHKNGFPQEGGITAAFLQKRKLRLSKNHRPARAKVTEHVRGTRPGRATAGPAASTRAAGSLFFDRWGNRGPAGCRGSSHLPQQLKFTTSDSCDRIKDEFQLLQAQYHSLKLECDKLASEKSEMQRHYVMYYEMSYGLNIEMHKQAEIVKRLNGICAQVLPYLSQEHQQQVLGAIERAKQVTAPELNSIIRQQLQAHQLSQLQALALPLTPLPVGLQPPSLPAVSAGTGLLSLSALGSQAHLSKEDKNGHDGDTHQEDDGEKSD
B3: Cyclin-dependent kinase 4 inhibitor C (Homo sapiens), P42773 (parent)
chain: MAEPWGNELASAAARGDLEQLTSLLQNNVNVNAQNGFGRTALQVMKLGNPEIARRLLLRGANPDLKDRTGFAVIHDAARAGFLDTLQTLLEFQADVNIEDNEGNLPLHLAAKEGHLRVVEFLVKHTASNVGHRNHKGDTACDLARLYGRNEVVSLMQANGAGGATNLQ
partner: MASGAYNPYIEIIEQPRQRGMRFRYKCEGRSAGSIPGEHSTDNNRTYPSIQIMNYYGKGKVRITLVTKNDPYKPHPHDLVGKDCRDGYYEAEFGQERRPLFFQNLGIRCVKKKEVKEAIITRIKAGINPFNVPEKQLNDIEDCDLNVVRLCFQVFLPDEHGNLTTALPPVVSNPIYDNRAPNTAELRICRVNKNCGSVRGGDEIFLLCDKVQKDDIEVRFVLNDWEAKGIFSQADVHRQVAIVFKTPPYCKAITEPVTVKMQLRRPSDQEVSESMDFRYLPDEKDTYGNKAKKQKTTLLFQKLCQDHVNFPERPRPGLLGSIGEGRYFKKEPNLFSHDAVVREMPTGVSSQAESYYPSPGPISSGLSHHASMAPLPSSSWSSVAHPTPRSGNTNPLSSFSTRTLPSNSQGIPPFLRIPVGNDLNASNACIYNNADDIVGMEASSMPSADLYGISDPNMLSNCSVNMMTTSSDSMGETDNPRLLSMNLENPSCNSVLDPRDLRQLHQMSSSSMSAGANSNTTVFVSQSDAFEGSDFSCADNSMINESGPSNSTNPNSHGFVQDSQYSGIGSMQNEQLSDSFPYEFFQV
B4: Sialidase-2 (Homo sapiens), Q9Y3R4 (parent)
chain: MASLPVLQKESVFQSGAHAYRIPALLYLPGQQSLLAFAEQRASKKDEHAELIVLRRGDYDAPTHQVQWQAQEVVAQARLDGHRSMNPCPLYDAQTGTLFLFFIAIPGQVTEQQQLQTRANVTRLCQVTSTDHGRTWSSPRDLTDAAIGPAYREWSTFAVGPGHCLQLHDRARSLVVPAYAYRKLHPIQRPIPSAFCFLSHDHGRTWARGHFVAQDTLECQVAEVETGEQRVVTLNARSHLRARVQAQSTNDGLDFQESQLVKKLVEPPPQGCQGSVISFPSPRSGPGSPAQWLLYTHPTHSWQRADLGAYLNPRPPAPEAWSEPVLLAKGSCAYSDLQSMGTGPDGSPLFGCLYEANDYEEIVFLMFTLKQAFPAEYLPQ
B5: Three-prime repair exonuclease 1 (Homo sapiens), Q9NSU2-1 (parent)
chain: MGPGARRQGRIVQGRPEMCFCPPPTPLPPLRILTLGTHTPTPCSSPGSAAGTYPTMGSQALPPGPMQTLIFFDMEATGLPFSQPKVTELCLLAVHRCALESPPTSQGPPPTVPPPPRVVDKLSLCVAPGKACSPAASEITGLSTAVLAAHGRQCFDDNLANLLLAFLRRQPQPWCLVAHNGDRYDFPLLQAELAMLGLTSALDGAFCVDSITALKALERASSPSEHGPRKSYSLGSIYTRLYGQSPPDSHTAEGDVLALLSICQWRPQALLRWVDAHARPFGTIRPMYGVTASARTKPRPSAVTTTAHLATTRNTSPSLGESRGTKDLPPVKDPGALSREGLLAPLGLLAILTLAVATLYGLSLATPGE
partner: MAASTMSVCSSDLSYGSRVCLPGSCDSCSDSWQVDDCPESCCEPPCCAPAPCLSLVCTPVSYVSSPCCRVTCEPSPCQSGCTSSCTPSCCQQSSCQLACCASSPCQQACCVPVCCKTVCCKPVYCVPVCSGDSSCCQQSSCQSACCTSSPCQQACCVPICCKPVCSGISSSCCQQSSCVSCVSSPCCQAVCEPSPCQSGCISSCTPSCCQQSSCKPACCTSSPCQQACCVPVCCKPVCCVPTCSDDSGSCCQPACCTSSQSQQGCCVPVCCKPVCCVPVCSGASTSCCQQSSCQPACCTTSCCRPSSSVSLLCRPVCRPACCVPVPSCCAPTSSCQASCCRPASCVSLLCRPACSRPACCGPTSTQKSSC
B6: DNA excision repair protein ERCC-1 (Homo sapiens), P07992-3 (parent)
chain: MDPGKDKEGVPQPSGPPARKKFVIPLDEDEVPPGVAKPLFRSTQSLPTVDTSAQAAPQTYAEYAISQPLEGAGATCPTGSEPLAGETPNQALKPGAKSNSIIVSPRQRGNPVLKFVRNVPWEFGDVIPDYVLGQSTCALFLSLRYHNLHPDYIHGRLQSLGKNFALRVLLVQVDVKDPQQALKELAKMCILADCTLILAWSPEEAGRYLETYKAYEQKPADLLMEKLEQDFVSRVTECLTTVKSVNKTDSQTLLTTFGSLEQLIAASREDLALCPGLGPQKVRALGKNPRSWGKERAPNKHNLRPQSFKVKKEPKTRHSGFRL
partner: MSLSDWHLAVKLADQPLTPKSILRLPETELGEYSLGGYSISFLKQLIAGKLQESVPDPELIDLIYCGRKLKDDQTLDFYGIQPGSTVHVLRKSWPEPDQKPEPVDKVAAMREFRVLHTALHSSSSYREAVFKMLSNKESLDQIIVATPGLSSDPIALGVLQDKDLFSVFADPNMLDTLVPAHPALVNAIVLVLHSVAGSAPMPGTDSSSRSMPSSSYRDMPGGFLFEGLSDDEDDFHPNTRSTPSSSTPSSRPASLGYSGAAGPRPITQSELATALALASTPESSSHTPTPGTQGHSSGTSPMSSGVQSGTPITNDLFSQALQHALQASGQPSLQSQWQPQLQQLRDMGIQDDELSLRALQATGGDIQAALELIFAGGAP
B7: Zinc finger protein 41 (Homo sapiens), P51814-6 (parent)
chain: MAANGDSPPWSPALAAEGRGSSCEASVSFEDVTVDFSKEEWQHLDPAQRRLYWDVTLENYSHLLSVGYQIPKSEAAFKLEQGEGPWMLEGEAPHQSCSGEAIGKMQQQGIPGGIFFHCERFDQPIGEDSLCSILEELWQDNDQLEQRQENQNNLLSHVKVLIKERGYEHKNIEKIIHVTTKLVPSIKRLHNCDTILKHTLNSHNHNRNSATKNLGKIFGNGNNFPHSPSSTKNENAKTGANSCEHDHYEKHLSHKQAPTHHQKIHPEEKLYVCTECVMGFTQKSHLFEHQRIHAGEKSRECDKSNKVFPQKPQVDVHPSVYTGEKPYLCTQCGKVFTLKSNLITHQKIHTGQKPYKCSECGKAFFQRSDLFRHLRIHTGEKPYECSECGKGFSQNSDLSIHQKTHTGEKHYECNECGKAFTRKSALRMHQRIHTGEKPYVCADCGKAFIQKSHFNTHQRIHTGEKPYECSDCGKSFTKKSQLHVHQRIHTGEKPYICTECGKVFTHRTNLTTHQKTHTGEKPYMCAECGKAFTDQSNLIKHQKTHTGEKPYKCNGCGKAFIWKSRLKIHQKSHIGERHYECKDCGKAFIQKSTLSVHQRIHTGEKPYVCPECGKAFIQKSHFIAHHRIHTGEKPYECSDCGKCFTKKSQLRVHQKIHTGEKPNICAECGKAFTDRSNLITHQKIHTREKPYECGDCGKTFTWKSRLNIHQKSHTGERHYECSKCGKAFIQKATLSMHQIIHTGKKPYACTECQKAFTDRSNLIKHQKMHSGEKRYKASD
B8: Phytanoyl-CoA dioxygenase, peroxisomal (Homo sapiens), O14832 (parent)
chain: MEQLRAAARLQIVLGHLGRPSAGAVVAHPTSGTISSASFHPQQFQYTLDNNVLTLEQRKFYEENGFLVIKNLVPDADIQRFRNEFEKICRKEVKPLGLTVMRDVTISKSEYAPSEKMITKVQDFQEDKELFRYCTLPEILKYVECFTGPNIMAMHTMLINKPPDSGKKTSRHPLHQDLHYFPFRPSDLIVCAWTAMEHISRNNGCLVVLPGTHKGSLKPHDYPKWEGGVNKMFHGIQDYEENKARVHLVMEKGDTVFFHPLLIHGSGQNKTQGFRKAISCHFASADCHYIDVKGTSQENIEKEVVGIAHKFFGAENSVNLKDIWMFRARLVKGERTNL

The first assay covers variants of B1. The conditions noted are these: with UBE3A.
On to L273P, for which the “effect of a mutation on the interaction” value was “disrupting interaction strength”.
In the case of R119W, the “effect of a mutation on the interaction” value is given as “with no effect”.
For the variant P220S, the “effect of a mutation on the interaction” value is recorded as “disrupting interaction strength”.
Take R433W: the “effect of a mutation on the interaction” value is given as “disrupting interaction strength”.

In a further assay the parent is B1. The conditions noted are these: with glna_human GLUL.
For L273P, the “effect of a mutation on the interaction” value is recorded as “disrupting interaction strength”.
On the same count and under the same terms, as for R119W, the entry is “with no effect”.
P220S: the “effect of a mutation on the interaction” value is listed as “with no effect”.
Consider R433W, for which the “effect of a mutation on the interaction” value is recorded as “disrupting interaction strength”.

The variants in another assay derive from B2. The conditions noted are these: with TLE5, Q08117-2.
Turning to L107V, the “effect of a mutation on the interaction” value is on record as “with no effect”.

In the next assay the parent is B3. The following applies: with REL.
With V31L, the “effect of a mutation on the interaction” value is on record as “disrupting interaction strength”.

In the next assay the parent is B4. The following applies: with nt2na_human NOTCH2NLA.
R41Q: the “effect of a mutation on the interaction” value is “with no effect”.

In a further assay the parent is B5. The conditions noted are these: with kr107_human KRTAP10-7, P60409.
As for R169H, the “effect of a mutation on the interaction” value is reported as “with no effect”.
For A213V, the “effect of a mutation on the interaction” value is reported as “with no effect”.
Consider G361A, for which the “effect of a mutation on the interaction” value was “with no effect”.

The variants in a further assay derive from B6. The following applies: with ubl7_human UBL7, Q96S82.
Regarding F231L, the “effect of a mutation on the interaction” value is given as “with no effect”.

The next assay covers variants of B7. The following applies: with fam9b_human FAM9B.
Target sequence in this assay (Q8IZU0 whole entry): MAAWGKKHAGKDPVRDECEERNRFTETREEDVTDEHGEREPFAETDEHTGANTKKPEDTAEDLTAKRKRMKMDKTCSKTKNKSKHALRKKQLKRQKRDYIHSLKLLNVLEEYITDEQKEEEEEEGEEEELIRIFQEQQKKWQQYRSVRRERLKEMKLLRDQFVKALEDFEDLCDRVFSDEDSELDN
For I125R, the “effect of a mutation on the interaction” value was “with no effect”.
Regarding P111L, the “effect of a mutation on the interaction” value was “disrupting interaction strength”.
On to C301R, for which the “effect of a mutation on the interaction” value is recorded as “with no effect”.

Variants of B8 are the subject of a further assay. The following applies: with fam9b_human FAM9B.
Target sequence in this assay (Q8IZU0 whole entry): as above
Consider P29S, for which the “effect of a mutation on the interaction” value is reported as “with no effect”.
For I199F, the “effect of a mutation on the interaction” value is on record as “disrupting interaction strength”.
As for N83Y, the “effect of a mutation on the interaction” value is “disrupting interaction strength”.
